# In IntAct's records for PubMed 24980795:
# B1: Spindle-defective protein 2 (Caenorhabditis elegans), P91870 (parent)
# chain: MEDDAPMNLCNEQFEEIEDSPIDDNDNESFYNADGDVELEEEEVHETPKNFKNGGRFKTNMTNPKVNDLTTIEEKNEDLRSAASSRSASRPASVMSDKSFSSQFEFQSGGENAIEEYTNQVFADENKADLLFPETSKFMNGASPPKDKHHSWEPSIHHYDKQPPPDIQTNSPVFGNLNHRKNKLIPQARAKPGANDNEIVERDNDENVPTTSDKSAFITSPMNSTNHDEKTSTPKRPTNRKIGQYQGPNFDLSSIYVGSPQHQNTSISTGQQMPTSSYSHAHSETMMTNQTINESMVRRVLNGNNKNQDLFAALEEARKRRAAQPSKPDFRINTTRTRVPIKPTSARHSGNVVSSTSNDNTTAASSKDLTTSRKAMETFRQNASMADATNSNTASMTSILSTISTARTDISRSSRNHGGGFSNTSVSTVIPANNGNVSLSHGRDGRDSVSSVRTMSRASSTSTVYAGSTFSGVSKPLRIHAKRVAFGCVAVGETLRVEVEVENISDRQCLVRASTDSTTPVYQILDNKLTMVDPKKSIKFQVSFSPSSVGRYQVIMSIEVPAQNFIHKIPMWGNGGIAKFVPTSPDLQQTINQSEYAMCTSCAKRISFKISNSAGTRDGFAMIKVFDSAMRQLPDGCVAFFPAPGFIVKKKSDKRVDIRIDSSYIDLHDENNFRTSSSLSTASTTSSFQRRILPGAKFFVHVVWGEETMRTRLRLLEVRTGQHQLIDGHDFTSFQFSDEEVLRAVPVGFPAIKPEDRDLFAASYRSFFINFFTSTTEFRAATSRKKKEICSNDDSTLLETTAFRNQTFVNDVTIVPNTRFSNRK
# partner: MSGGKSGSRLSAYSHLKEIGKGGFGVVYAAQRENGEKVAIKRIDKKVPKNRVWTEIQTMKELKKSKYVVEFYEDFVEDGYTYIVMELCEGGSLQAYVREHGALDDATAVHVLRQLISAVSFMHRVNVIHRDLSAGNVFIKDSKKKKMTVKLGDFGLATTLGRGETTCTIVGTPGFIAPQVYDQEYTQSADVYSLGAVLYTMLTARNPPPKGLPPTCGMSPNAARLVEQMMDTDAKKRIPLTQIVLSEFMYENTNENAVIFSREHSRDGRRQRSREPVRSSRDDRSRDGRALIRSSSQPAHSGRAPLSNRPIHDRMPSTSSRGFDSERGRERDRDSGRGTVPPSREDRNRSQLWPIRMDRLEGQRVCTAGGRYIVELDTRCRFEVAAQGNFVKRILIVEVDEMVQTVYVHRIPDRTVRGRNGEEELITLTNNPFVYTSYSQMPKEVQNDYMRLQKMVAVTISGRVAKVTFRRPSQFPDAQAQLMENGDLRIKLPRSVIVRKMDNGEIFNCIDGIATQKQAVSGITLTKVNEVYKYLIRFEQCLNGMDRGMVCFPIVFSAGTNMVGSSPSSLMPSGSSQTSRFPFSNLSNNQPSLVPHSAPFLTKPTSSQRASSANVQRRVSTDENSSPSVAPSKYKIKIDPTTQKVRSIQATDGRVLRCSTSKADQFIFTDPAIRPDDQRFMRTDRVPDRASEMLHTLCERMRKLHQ
# B2: Probable serine/threonine-protein kinase zyg-1 (Caenorhabditis elegans), Q9GT24 (parent)
# chain: B1 partner
# partner: B1 chain
# B3: Serine/threonine-protein kinase PLK4 (Mus musculus), Q64702-1 (parent)
# chain: MAACIGERIEDFKVGNLLGKGSFAGVYRAESIHTGLEVAIKMIDKKAMYKAGMVQRVQNEVKIHCQLKHPSVLELYNYFEDNNYVYLVLEMCHNGEMNRYLKNRMKPFSEREARHFMHQIITGMLYLHSHGILHRDLTLSNILLTRNMNIKIADFGLATQLNMPHEKHYTLCGTPNYISPEIATRSAHGLESDIWSLGCMFYTLLIGRPPFDTDTVKNTLNKVVLADYEMPAFLSREAQDLIHQLLRRNPADRLSLSSVLDHPFMSRNPSPKSKDVGTVEDSMDSGHATLSTTITASSGTSLSGSLLDRRLLVGQPLPNKITVFQKNKNSSDFSSGDGSNFCTQWGNPEQEANSRGRGRVIEDAEERPHSRYLRRAHSSDRASPSNQSRAKTYSVERCHSVEMLSKPRRSLDENQHSSNHHCLGKTPFPFADQTPQMEMVQQWFGNLQMNAHLGETNEHHTVSPNRDFQDYPDLQDTLRNAWTDTRASKNADTSANVHAVKQLSAMKYMSAHHHKPEVMPQEPGLHPHSEQSKNRSMESTLGYQKPTLRSITSPLIAHRLKPIRQKTKKAVVSILDSEEVCVELLRECASEGYVKEVLQISSDGTMITVYYPNDGRGFPLADRPPLPTDNISRYSFDNLPEKYWRKYQYASRFIQLVRSKTPKITYFTRYAKCILMENSPGADFEVWFYDGAKIHKTENLIHIIEKTGISYNLKNENEVTSLKEEVKVYMDHANEGHRICLSLESVISEEEKRSRGSSFFPIIVGRKPGNTSSPKALSAPPVDPSCCKGEQASASRLSVNSAAFPTQSPGLSPSTVTVEGLGHTATATGTGVSSSLPKSAQLLKSVFVKNVGWATQLTSGAVWVQFNDGSQLVVQAGVSSISYTSPDGQTTRYGENEKLPEYIKQKLQCLSSILLMFSNPTPNFQ
# Variants of: B1
# Details: with zyg1_caeel zyg-1, Q9GT24
row,Variant,effect of a mutation on the interaction
1,E38K;E40K;E41K;E42K;E43K,disrupting interaction strength
2,E12K;E15K;E16K;E18K;D19K,disrupting interaction strength

# Variants of: B1
# Details: with zyg1_caeel zyg-1, Q9GT24
# Remark: another data set of the same source
row,Variant,effect of a mutation on the interaction
1,E38K;E40K;E41K;E42K;E43K,decreasing interaction strength
2,D26K;E28K;D34K;D36K,decreasing interaction strength

# Variants of: B2
# Details: with spd2_caeel spd-2, P91870
row,Variant,effect of a mutation on the interaction
1,R463E,disrupting interaction strength
2,R471E,decreasing interaction strength
3,R470E;R471E,disrupting interaction strength
4,R489E;K491E,disrupting interaction strength
5,R470E,decreasing interaction strength
6,K454E,decreasing interaction strength
7,K500E,disrupting interaction strength

# Variants of: B3
# Details: with ce152_mouse Cep152, A2AUM9
# ce152_mouse Cep152, A2AUM9, sequence (A2AUM9 whole entry): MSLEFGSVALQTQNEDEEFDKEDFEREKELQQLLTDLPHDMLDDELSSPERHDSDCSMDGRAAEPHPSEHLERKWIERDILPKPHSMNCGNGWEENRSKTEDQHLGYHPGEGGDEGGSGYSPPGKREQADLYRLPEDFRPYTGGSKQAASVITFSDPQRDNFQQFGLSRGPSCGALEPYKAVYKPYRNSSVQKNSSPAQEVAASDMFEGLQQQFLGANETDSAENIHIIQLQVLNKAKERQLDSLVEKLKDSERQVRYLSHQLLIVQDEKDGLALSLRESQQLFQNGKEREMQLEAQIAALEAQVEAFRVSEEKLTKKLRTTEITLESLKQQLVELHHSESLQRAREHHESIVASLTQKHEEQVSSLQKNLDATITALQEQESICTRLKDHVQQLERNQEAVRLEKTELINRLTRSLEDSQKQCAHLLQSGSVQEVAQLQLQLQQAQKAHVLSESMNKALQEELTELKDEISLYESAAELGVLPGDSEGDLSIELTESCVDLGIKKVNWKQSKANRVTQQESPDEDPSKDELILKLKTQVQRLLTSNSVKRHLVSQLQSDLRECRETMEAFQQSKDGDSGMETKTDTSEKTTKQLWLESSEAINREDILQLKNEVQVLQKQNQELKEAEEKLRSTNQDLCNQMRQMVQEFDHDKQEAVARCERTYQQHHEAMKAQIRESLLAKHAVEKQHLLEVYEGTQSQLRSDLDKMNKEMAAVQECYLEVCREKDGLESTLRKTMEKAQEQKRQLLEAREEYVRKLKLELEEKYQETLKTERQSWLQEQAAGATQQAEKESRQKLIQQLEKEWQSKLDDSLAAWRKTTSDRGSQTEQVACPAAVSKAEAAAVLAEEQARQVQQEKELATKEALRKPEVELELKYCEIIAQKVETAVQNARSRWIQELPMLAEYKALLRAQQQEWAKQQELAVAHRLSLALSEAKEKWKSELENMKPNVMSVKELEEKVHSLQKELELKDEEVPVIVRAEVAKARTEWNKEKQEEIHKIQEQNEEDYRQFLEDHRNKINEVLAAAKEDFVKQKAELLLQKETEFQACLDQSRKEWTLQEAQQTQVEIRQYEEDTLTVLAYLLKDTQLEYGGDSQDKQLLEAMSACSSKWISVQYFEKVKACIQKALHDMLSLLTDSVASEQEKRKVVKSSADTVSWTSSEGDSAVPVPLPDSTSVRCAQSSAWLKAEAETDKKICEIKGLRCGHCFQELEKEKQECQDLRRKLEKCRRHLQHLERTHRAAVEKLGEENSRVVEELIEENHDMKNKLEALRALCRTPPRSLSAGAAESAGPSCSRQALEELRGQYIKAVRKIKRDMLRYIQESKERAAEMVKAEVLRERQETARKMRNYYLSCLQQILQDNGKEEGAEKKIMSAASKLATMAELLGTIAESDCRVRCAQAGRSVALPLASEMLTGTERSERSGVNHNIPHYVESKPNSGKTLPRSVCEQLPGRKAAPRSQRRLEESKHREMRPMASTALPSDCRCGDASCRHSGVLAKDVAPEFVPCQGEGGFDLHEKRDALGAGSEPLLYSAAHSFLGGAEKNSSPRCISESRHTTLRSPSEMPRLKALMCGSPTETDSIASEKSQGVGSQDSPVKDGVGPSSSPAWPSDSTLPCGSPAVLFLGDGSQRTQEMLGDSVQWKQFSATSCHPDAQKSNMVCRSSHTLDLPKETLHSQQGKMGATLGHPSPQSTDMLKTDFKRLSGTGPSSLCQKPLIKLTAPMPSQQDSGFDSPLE
row,Variant,effect of a mutation on the interaction
1,R652E,decreasing interaction strength
2,K672E,decreasing interaction strength
3,K568E;K569E,increasing interaction strength
4,K693E,decreasing interaction strength
5,K660E,decreasing interaction strength
6,R766E;K767E,decreasing interaction strength

# Variants of: B3
# Details: with Cep192, E9Q4Y4
# Cep192, E9Q4Y4, sequence (E9Q4Y4 entry or part of it): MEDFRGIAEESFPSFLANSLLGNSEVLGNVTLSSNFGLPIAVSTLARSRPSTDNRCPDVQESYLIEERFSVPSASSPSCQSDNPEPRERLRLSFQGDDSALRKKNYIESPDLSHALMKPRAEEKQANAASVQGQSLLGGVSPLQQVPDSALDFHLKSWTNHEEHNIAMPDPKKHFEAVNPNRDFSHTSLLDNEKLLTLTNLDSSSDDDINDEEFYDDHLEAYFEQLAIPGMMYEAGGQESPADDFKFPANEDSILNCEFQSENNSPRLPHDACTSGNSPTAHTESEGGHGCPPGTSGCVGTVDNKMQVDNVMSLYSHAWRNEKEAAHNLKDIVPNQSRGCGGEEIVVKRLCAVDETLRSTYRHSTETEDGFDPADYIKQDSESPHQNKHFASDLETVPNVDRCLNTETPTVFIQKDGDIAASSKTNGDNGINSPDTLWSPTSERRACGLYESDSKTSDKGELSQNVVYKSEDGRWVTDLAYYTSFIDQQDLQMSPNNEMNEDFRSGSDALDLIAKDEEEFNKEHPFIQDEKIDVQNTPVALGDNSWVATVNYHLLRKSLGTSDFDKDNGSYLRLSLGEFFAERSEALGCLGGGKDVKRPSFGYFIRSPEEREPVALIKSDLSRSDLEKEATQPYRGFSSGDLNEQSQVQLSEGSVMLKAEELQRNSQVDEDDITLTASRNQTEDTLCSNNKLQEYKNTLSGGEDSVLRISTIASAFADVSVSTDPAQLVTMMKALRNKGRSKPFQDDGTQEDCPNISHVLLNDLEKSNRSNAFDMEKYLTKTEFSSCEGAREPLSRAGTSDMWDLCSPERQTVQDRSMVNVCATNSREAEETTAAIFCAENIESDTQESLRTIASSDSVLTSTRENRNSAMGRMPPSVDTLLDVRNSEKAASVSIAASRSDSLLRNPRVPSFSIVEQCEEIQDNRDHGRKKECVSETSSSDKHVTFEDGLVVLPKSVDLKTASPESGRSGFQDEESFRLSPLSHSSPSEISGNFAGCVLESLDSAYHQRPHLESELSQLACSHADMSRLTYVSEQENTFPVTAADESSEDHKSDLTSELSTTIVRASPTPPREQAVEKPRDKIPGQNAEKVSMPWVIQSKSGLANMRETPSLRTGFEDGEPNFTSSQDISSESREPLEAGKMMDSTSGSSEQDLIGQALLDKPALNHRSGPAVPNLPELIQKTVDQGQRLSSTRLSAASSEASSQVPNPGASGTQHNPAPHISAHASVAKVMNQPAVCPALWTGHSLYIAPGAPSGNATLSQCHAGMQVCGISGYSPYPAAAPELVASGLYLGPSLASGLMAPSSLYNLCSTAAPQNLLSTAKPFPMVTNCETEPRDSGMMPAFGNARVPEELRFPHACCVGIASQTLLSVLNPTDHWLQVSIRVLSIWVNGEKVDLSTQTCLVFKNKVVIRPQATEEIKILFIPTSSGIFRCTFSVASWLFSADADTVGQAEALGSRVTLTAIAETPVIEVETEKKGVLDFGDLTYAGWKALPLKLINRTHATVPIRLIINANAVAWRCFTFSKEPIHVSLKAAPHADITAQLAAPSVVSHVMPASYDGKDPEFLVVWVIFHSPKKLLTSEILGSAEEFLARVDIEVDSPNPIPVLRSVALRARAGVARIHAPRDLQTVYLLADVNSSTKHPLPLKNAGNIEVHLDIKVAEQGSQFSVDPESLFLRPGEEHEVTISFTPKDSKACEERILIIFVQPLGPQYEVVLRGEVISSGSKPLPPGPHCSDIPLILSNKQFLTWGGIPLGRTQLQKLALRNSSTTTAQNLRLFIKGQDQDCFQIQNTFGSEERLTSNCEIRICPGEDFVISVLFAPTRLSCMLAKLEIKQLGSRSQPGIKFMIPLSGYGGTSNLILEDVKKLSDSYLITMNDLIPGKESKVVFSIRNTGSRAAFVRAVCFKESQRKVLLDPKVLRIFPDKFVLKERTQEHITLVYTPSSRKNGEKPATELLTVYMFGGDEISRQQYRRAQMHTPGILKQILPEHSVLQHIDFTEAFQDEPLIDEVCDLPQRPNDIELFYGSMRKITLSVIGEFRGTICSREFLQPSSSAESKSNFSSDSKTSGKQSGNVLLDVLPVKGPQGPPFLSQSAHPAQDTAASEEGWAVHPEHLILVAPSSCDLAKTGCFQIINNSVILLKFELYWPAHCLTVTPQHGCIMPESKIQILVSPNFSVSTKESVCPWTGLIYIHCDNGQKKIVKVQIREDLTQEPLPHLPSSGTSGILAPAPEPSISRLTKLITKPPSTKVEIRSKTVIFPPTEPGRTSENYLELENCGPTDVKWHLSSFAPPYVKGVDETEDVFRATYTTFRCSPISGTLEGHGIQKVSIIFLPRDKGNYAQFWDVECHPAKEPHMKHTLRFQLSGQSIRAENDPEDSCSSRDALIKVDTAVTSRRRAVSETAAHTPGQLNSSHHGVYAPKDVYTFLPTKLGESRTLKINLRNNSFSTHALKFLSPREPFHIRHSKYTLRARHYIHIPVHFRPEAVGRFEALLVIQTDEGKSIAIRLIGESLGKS
row,Variant,effect of a mutation on the interaction
1,K672E,decreasing interaction strength
2,R564E;K566E,increasing interaction strength
3,K693E,decreasing interaction strength
4,K660E,increasing interaction strength
5,R766E;K767E,decreasing interaction strength
